Measured values: the DeepSol protein solubility set

Assay: soluble on expression in E. coli; label from the status in PepcDB or PDB records

Question: Which “soluble on expression in E. coli” value does the source give for “TEPPGVIIVGESEFSFHLGINLRDHGIPVMMFNLFENTSEKAHEAGFEVFKGNLLSSNDRIYSDLLRYNKCILMTQSFIFNSLAFNELVPEFGLNNVDMMPVSFNDEQARNNLNGPIRNHILFDENHTPRWFNQFITQHNIVEVPAEDYEKITEN” here?
Answer: The value was “not soluble”.

Question: With “MTDLQVFEMNPQLNFPISDKTIYQMGFNSSAAQPSAANYVTESNSLTNHLQILDLLNPQTSSGSDDKKRQFFADLMTPHYEKQAEIEKKIDDLSEVVHQFIQSQQSLNKLILEKCLGRIPSPRMTSPHQPEDNSIDDMDPPVQEEIEEKIENDTFGQNEVTVNQQPINNPMPVYPVPISHEPANLHSPIRNRSISPEKMDTTGNSGAGMSVRDFLKNTMTVQKADEKILEEELERERDEAAQTVRYNKFRVRNRPKKYKRSAVTFTSSLEAATSSSSSTIPHQDQGPTFSTHSTIGNSSDTSQLMEQLDQSQNDSIDIEENVYQPIVVPCVQRAPELDLTLMQPVFSTASSYVLNSSALDPTTHQAQSSLSALTDSKFQTDPNNLWKAVDGVSQLLVDAPSLLESDLRSFTDHSHHSSFLPFVANHEPLHRSAFLPPQYHKDRRIHQQMDSHLSDTLRNL” as the sequence, how does the “soluble on expression in E. coli” value read?
Answer: Its value is “not soluble”.

Question: For “MSNQQALVIFSGGQDSTTCLIQAIQTYGRENVQAITFQYGQRHAVELERARWIAQDLGVKQTVLDLSLMRQITHNALMDDTAAIETAENGVPNTFVDGRNALFLLYAAIYAKGQGIRHIIAGVCETDFSGYPDCRDVFVKSMNVTLNLAMDYDFQIHTPLMYLTKAQTWALADEMGVLDYIREQTHTCYNGIVGGCRECPSCILRERGLAEYLESKKAV”, which “soluble on expression in E. coli” value is on record?
Answer: The value was “not soluble”.

Question: Which “soluble on expression in E. coli” value does the source give for “MEPPLWVFGYGSLIWDPGFPVARSVIARLDGWHRSFCMHSIHYRGTATDPGLVLALDAAPGGACLGVGFQVTPGAEAETLAALRKRELISNAYLERWLPVTLATGETVEAVSYVIDPDHGQYCGGLDLEAQAQIIARAAGERGPNRDYLLHTVAHLQSLGISDPDLCWLATRVRALGNDPVSAAALEHHHHHH” here?
Answer: The value was “not soluble”.

Question: For “MDTFGLIQLAELIYEYCGIDFFKNLSSLESKISERLKELGLSCWEYGGYLRVEPKEWDTLIDLITVNETYFFREENLLEEFQKVILPKYKDRTPNNPLRIWSSACSSGEEPYTLAILSEETGLFETGAVEIIASDIDKKVLEKARRGLYNKKSFSFRTMPKEILDKYFISFGDDYKVKDSIRAMVDFRRVNLLDENKLEKVGEVDIVFCRNVLIYFDTKAINKVINSLYKVLRAGGYLFLGHAETITGMNTGFETIYTPSAFYYRKGERH”, which “soluble on expression in E. coli” value is on record?
Answer: Its value is “not soluble”.

Question: Which “soluble on expression in E. coli” value does the source give for “MKLCFNEATTLENSNLKLDLELCEKHGYDYIEIRTMDKLPEYLKDHSLDDLAEYFQTHHIKPLALNALVFFNNRDEKGHNEIITEFKGMMETCKTLGVKYVVAVPLVTEQKIVKEEIKKSSVDVLTELSDIAEPYGVKIALEFVGHPQCTVNTFEQAYEIVNTVNRDNVGLVLDSFHFHAMGSNIESLKQADGKKIFIYHIDDTEDFPIGFLTDEDRVWPGQGAIDLDAHLSALKEIGFSDVVSVELFRPEYYKLTAEEAIQTAKKTTVDVVSKYFSMLEHHHHHH” here?
Answer: The value was “soluble”.

Question: For “MGGSFGKKGASSATAAQVPLATETTPGLMSPSEKLKLSTLTTSIATSDFYASYDFMMHSIGLTSANNISLLSTGNISLQNILSEGNHFGVQPIVSSTTANASFLAGMLMAIFPKESELEVTVYFKTPSAFNPAQLTVIGSTSIGLGISDRSGLIIENGNAFGGIVKASAATETGSTYALSTSTWYICKFKMLTDDRFKVTLYSDSGTQLYSYTSTAAMFRADNATAHIGFKTQCKTATAGISLISIDLIEFKAKVSATRAKV”, which “soluble on expression in E. coli” value is on record?
Answer: The value was “soluble”.

Question: Which “soluble on expression in E. coli” value does the source give for “MKVTLSVLKADIGSVGGHTLPSRKVLAKVEEVVREEVGRLLLDAYVFHIGDDIVLLLSHTRGVRNQEVHALAWKAFREGTEVAKAEGLYGAGQDLLKDAFTGNLHGLGPQVAEMEFTERPAEPFMVLAADKTEPGAFNLPLYLAFADPMYSSGLLLSPELRPGFRFRIMDLAQTERDSYIELDAPERLYDIATLLRDSHRFAIESIWSRKHGEQAAVVSTTRLRNIAGRYVGKDDPVAIVRTQKIFPATEEFGPVFALAPYVAGDTRGSHHMPLMPVRANTPASTFFCVPMVCGLAFSLREGRLSEPVDLFADPVWEAVRAKVVEKAQEMRRQGFYGPAMLPMEELEYTGIAERLKALEREFS” here?
Answer: Its value is “soluble”.

Question: With “MSHAVARLRAERLARSNKPFIARGSRAERCPDCRVIATHCLCAWKPRVQADAGVCLLMHDTEPLKPTNTGWLIADLIEDTWAFGWLRTAVDERLLALLDDPRWQPYIVFPGEFVAQERVVSEVVREPGKRPLFILLDATWTEARKMFRKSPYLDRFPVLSLQAEQMSRYRLRRSKRDDHFCTAEVAAMCLDLAGDGQASQALDAYLDVFSLHYLSGKRRLPLDEQDDTHQRLHTFLLEHHHHHH” as the sequence, how does the “soluble on expression in E. coli” value read?
Answer: The value was “soluble”.

Question: With “MSRVERLPNGLVVALEERDFPGVAFQLLVPAGAVNDPEGMEGAAALLEGWLWKGAGDLDARALAQALDALGVRRSSGAGLEYTAFAAAFLPEVLDEVFRLYALLLTRPRLPEEGLEAVGHVALQALLSLEDQPARKLLSELRRKVFRSPHGREPLGREEGLKGARAEALKADYRRRYTPKGAILAVAGGVSWERLRAALEPFLAWEGEEALYPAPELSEPHRFVLRRPTAQVQIGLAYPDVGPEDPGFYAARLALEVLSGGMSSRLFTEVREKRGLVYAVSAFPAGVKGQGLLMAYAGTTKERAGETLEVLRAEVERLAEGVTEEELFRAKVGLKTALVMADESIRSRAASMARDLYMLGRVRSLSEIEAAIEGTSLEAVNAFLRAHPYRDPWVGLLGEVEDV” as the sequence, how does the “soluble on expression in E. coli” value read?
Answer: Its value is “soluble”.

Question: For “MAHHHHHHMHSVVPMSSYIHPTQVSIGAAPRMAVQEMHPDAKRKGRRVVATMELKPGNAIFAAPPDIAVLYSPFARHICARCLVADVRACAEPLKAHHHHHQHPHQQPHATLSRSPVGASSSPSSLSSSTAAPAAAPVRPYCCPNCDQFVLCAPCVAQLLLDSGVDVTSAAGTDAVQTTAPLLQRRGEGKRGVSVVDERLHLHPLLRAHAISCAWYTSLPASIRAPGNDTDFLRFCLDYGARAYLGDTAMMRALATLDTNASVQSKESMQLCEVFARDRVVATFGKEPKAVTATTLATAASAKHMGIDPLSNQAGTHASGGIHRGGNSDGVRCRGSAAVSPFPPRYPISWTDLRDTLLRTRCNSIGFPYNTEETTGWSLHQTVCMLNHSCVPNAAVIMLYDSADAMAAAAALAARTGASHTAPPKERTQEAARRKASERIAAFRAVATSSESPYSTSYSPSLAGWIGIEATRPIAAGEEITISYVDLGSLGDDLQTRSRHLLEQYRFLCTCELCMRQRSLKR”, which “soluble on expression in E. coli” value is on record?
Answer: The value was “not soluble”.

Question: For “MGSDKIHHHHHHMMDWLYRYPPLYPGILLKRYKRFFADVQLTSGEIVTAHCPNTGPMTGVSTPQSAVQLSKSDNLNRKLAYTLELIQVHDNEPTWVGINTFLPNRVVKLALAKYLFPELGEYSQIKGEVVYGLDKKSRVDFFLTGSDEERPIYLEVKNTTLSEGRLALFPDTETTRGQKHLRELMALLPLTRAVMLYFINRGDCTEFSPGDRTDPVYGKLLRDAIALGLEVLPCRFDISPEGIRYLGLAKLKI”, which “soluble on expression in E. coli” value is on record?
Answer: Its value is “not soluble”.

Question: Which “soluble on expression in E. coli” value does the source give for “MKIAGFDIGGANTDMAIIDFGSDGDMKEVRVDFRYLPMWLRKDELAETLLEMVGDDLHELEGVGVCMTAELVDAYPSKAAGVADIIDRVEGAFDVPVAYVSLSGMVDASEALADPMNIAAANWVATSQIASAMSSDCIMVDVGSTTTDIIPVKDGFEAARGRNDLERLSTGELVYTGTLRTNVATIVDRVPLQDKWFRVSSELFAVTADVHRVLGNIGESDYTCSTPDGAGKSVEECMLRIARVLCADLELLSPGDVLDVAEYIYHQQILKIAEGIAEVSEREGLEEVVTTGLGMKILAQRAAEVLELECRTMDEFLTEEECVVAPAVGTALLMEDYLQAQGLLEHHHHHH” here?
Answer: Its value is “not soluble”.

Question: Which “soluble on expression in E. coli” value does the source give for “MMHNPAHPGEVLKVAFLEEMGLTIQKLADHLHMTRASLSRVINGHASMSTELAIKLELAGFSKAKFWLDMQTNYNLWKTMQQAQPPISPLVSDSPQTSL” here?
Answer: Its value is “not soluble”.

Question: With “PELPTCLTRRLADYATEKPLVRLFFQGEEATVPFISQTSRELNMDINILLANIDRFDGVTCGVLVVELTANPLLLEAFINRCEQAGITVEVLGYVLPDGL” as the sequence, how does the “soluble on expression in E. coli” value read?
Answer: The value was “not soluble”.

Question: With “MGHHHHHHSHMARLILERFLQEHEETPPSKSIINSMLRDPSQIPDGVLANQVYQCIVNDCCYGPLVDCIKHAIGHEHEVLLRDLLLEKNLSFLDEDQLRAKGYDKTPDFILQVPVAVEGHIIHWIESKASFGDECSHHAYLHDQFWSYWNRFGPGLVIYWYGFIQELDCNRERGILLKACFPTNIVTLCHSIA” as the sequence, how does the “soluble on expression in E. coli” value read?
Answer: Its value is “not soluble”.

Question: For “MSLTQVIPTSLLQRLSLLFGCAGIVLGTAVANASSPASRDLFEIHVRPTLIKHCIQCHGETEQEGGLKLTSLDAMLAGGDSGPAIVPGNADDSLILEALRFESFEMPPAGQLDDPVVNGFASWIKAGAPWPEDLILTPMPIITEDDRDWWCYQPIADPVVPDVDDDSWCRNEIDRFVLDRLKQENLRPADEATASQLTRRLHFALTGLPPTCPPPSNQQNADSSADDWYEAQLNELLSSPAYGEHQARYWMDLVRYADSDGYNADHARPHAHLYRDYVIRSFNEDKPYDRFVCEQLAGDEIDPGNRDALIGTMYLRHWIYEWNQRDVEGQWQEIISDITETTADVFLAQGLKCARCHDHKFDPLLQRDFFALKAFFTPLLPREDFPVADVATREGHHHHHH”, which “soluble on expression in E. coli” value is on record?
Answer: Its value is “not soluble”.

Question: Which “soluble on expression in E. coli” value does the source give for “MYDAALGRWHAVDPMSEKYYSWSPYTYCKNNPVLRIDLDGKDDYVISRSGRLFNETPIDKRGKGSTDNLYLSSDRSISVTVNQGLLGEMHSMQAKEQKENRVKKSYGSTQDLETAATVFKFAADHTTVEWKLDVYDDNGTRTAVVATDRDPYGVDNGVYAQNKLSVKGEKVIDIHSHLPGGTKGGAGNDFNLAKPQRKNAVYMKDNRVSTDKKDMIYEYTKNASRVNSIRVYDATDLLQYIKRK” here?
Answer: Its value is “not soluble”.

Question: With “KANFQWETGFTFSVNKNTIKKLYGEYETIVDALGNTIVKERDDVTNGWFIGHPVSAIWDYKVTGIWQKDEVKEAAKYSQRPGDPKVQNIYTDDDKVNADGSVTPVYNNKDKQFMGETTPPIHWSLRNSFTIFKDWVFSFNMYSYMGHKSLDTNYLNNDNNYSQITNCRNVYTKEYWTVDNPSNTYARLSAQGPTGISAPARVIDRSFIRLENISLAYNIPMKFLEKYKIQNAKIFTTVRNVATWSKEWEYGDPETGGLAPRTYSLGINLTF” as the sequence, how does the “soluble on expression in E. coli” value read?
Answer: The value was “not soluble”.

Question: With “MSLELIEENDFDAIYIGNSKVMIKDYRGFVATLRILREKFPNAVLITDLEPFFYPLAVYLGVDAFDVRSLKIYSYEGLGFTPFSPVIWDRPNDPIEFAREMIKIIKIAIQEGKLRYLVENFLPTVMNVGILRIADKEHGDYLEKYTPVHDKTVVFISEHSISRPEVFRWRKRIEERFEPPKGIDLLLIFPCSAKKPYSRSRSHMMYRKVMKEALGEKVHRVHELVVTSPYGVVPREWEWLAKYDIVVTGHWSESEVRFAGELLAQTIEKYPDIPIVAHVEGGYREAVKYAMELVNRDVIFTAVGSSTISKESLDKLKKTLKEFDLRDAEKDYRRYRFYENVRKVFDYYFGLGAGEAVLPENAQIVGSKMLRLIVNNSQTGTFQEGVISVTPFGMQRIYDKLNSYWVEVDFDIRGDVFAAGVERADEGIRPNDIVGIVRDGRVVAVGRAVLSGEEMVRAKKGIAVRVRKRVKNKEGHHHHHH” as the sequence, how does the “soluble on expression in E. coli” value read?
Answer: Its value is “not soluble”.

Question: With “AHHHHHHASAKWVCKICGYIYDEDAGDPDNGISPGTKFEELPDDWVCPICGAPKSEFEKLEDGSFKLYSLAREFARDLLFEINGDVVTLSIKGVLLANTSSTSSNFSIFEVSENEFILAIQTSGYVVYLGIEAEEEIEEEVYPSLVRIIISEVMPIINNLVQVAKELSYKGADILLDDNMSSSLREAMYNLLLKHKKGKSPYEQVEVA” as the sequence, how does the “soluble on expression in E. coli” value read?
Answer: Its value is “soluble”.
